Starred links: 1 amine or outer side, 2 acyl side, 3 side chain; linkers in the order of their positions; H or OH if unused. Positions of bridges follow the written chain, without caps; N, C: chain ends. Non-standard residues stand in square brackets, D forms with d. Primed or numbered codes have the meaning given here. B5(4) = 2,2-bis(4-pentenyl)glycine = 2-amino-2-(pent-4-en-1-yl)hept-6-enoic acid (stitching residue), C=CCCCC(CCCC=C)(N[*:1])C(=O)[*:2]; B5(20) = 2-amino-2-(pent-4-en-1-yl)hept-6-enoic acid = bis(4-pentenyl)glycine, stitching residue, C=CCCCC(CCCC=C)(N[*:1])C(=O)[*:2]; Ala(1H-tetrazol-5-yl) = N[C@@H](Cc1nnn[nH]1)C(=O)O; Ala(4-thiazolyl) = N[C@@H](Cc1cscn1)C(=O)O; Abu(4,4,4-F3) = N[C@@H](CC(F)(F)F)C(=O)O; Phe(4-NH2) = Nc1ccc(C[C@H](N)C(=O)O)cc1; Ala(2-furyl) = N[C@@H](Cc1ccco1)C(=O)O; Phe(3-Me) = Cc1cccc(C[C@H](N)C(=O)O)c1; Phe(4-Me) = Cc1ccc(C[C@H](N)C(=O)O)cc1; Phe(2-Me) = Cc1ccccc1C[C@H](N)C(=O)O; Bta = N[C@@H](Cc1csc2ccccc12)C(=O)O; αAllylPro = C=CC[C@@]1(C(=O)O)CCCN1; hPhe = N[C@@H](CCc1ccccc1)C(=O)O; 2Thi = N[C@@H](Cc1cccs1)C(=O)O; 3Thi = N[C@@H](Cc1ccsc1)C(=O)O; S8 = C=CCCCCCC[C@](C)(N)C(=O)O
target: full-length beta-Catenin (Uniprot ID P35222) (Homo sapiens (Human)) (UniProt P35222); test: FP competition: full-length beta-catenin 10 nM + 5FAM-TCF4(10-53) 10 nM
Sequence (P35222 whole entry): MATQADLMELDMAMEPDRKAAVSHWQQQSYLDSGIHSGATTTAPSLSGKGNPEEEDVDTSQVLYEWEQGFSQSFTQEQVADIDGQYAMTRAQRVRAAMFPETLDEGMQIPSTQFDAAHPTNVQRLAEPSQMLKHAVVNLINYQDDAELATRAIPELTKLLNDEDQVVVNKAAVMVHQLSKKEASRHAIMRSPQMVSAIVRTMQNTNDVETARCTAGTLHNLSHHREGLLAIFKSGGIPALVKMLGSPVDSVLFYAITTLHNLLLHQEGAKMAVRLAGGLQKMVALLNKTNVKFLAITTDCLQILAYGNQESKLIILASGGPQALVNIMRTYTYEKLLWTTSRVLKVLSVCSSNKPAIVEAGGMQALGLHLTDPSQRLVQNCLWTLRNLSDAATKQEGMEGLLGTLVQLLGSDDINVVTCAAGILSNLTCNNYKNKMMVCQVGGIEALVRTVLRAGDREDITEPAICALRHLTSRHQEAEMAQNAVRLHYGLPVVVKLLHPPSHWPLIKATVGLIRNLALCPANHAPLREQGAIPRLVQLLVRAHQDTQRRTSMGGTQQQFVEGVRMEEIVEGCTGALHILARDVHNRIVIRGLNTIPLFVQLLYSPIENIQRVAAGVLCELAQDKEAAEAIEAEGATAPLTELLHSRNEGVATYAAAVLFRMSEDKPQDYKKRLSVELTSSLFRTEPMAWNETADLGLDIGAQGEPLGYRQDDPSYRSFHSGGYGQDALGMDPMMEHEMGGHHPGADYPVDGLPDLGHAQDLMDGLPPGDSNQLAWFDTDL

Point of comparison: Ac-[αAllylPro]DA[B5(4)]DEAA[Ala(4-thiazolyl)]N[S8]F[Bta]Q-NH2 (staple 1-4, 4-11) [I-524], IC50 2550 nM. Against it:
- Ac-[αAllylPro]DA[B5(20)]DEAAFN[S8][3Thi][Bta]H-NH2 (staple 1-4, 4-11; also: later-eluting HPLC peak of staple isomers) [I-516] — 110-fold lower, 23 nM
- Ac-[αAllylPro]DA[B5(20)]DEAAFN[S8][3Thi][Bta]Q-NH2 (staple 1-4, 4-11; also: later-eluting HPLC peak of staple isomers) [I-519] — 77-fold lower, 33 nM
- Ac-[αAllylPro]DI[B5(20)]DEAAFN[S8][3Thi][Bta]Q-NH2 (staple 1-4, 4-11; also: later-eluting HPLC peak of staple isomers) [I-521] — 110-fold lower, 23 nM
- Ac-[αAllylPro]D[Abu(4,4,4-F3)][B5(4)]DEAAFQ[S8]F[Bta]H-NH2 (staple 1-4, 4-11) [I-504] — 39-fold lower, 65 nM

target: full-length beta-Catenin (Uniprot ID P35222) (Homo sapiens (Human)) (UniProt P35222); test: fluorescence polarization competition; full-length beta-catenin, competitor 5FAM-TCF4(10-53) probe

Point of comparison: Ac-[αAllylPro]DA[B5(4)]DEAA[Phe(2-Me)]N[S8]F[Bta]Q-NH2 (staple 1-4, 4-11) [I-456], IC50 2170 nM. Against it:
- Ac-[αAllylPro]DA[B5(4)]DEAA[Phe(4-Me)]N[S8]F[Bta]Q-NH2 (staple 1-4, 4-11) [I-459] — 12-fold lower, 183 nM
- Ac-[αAllylPro]DA[B5(4)]D[Ala(1H-tetrazol-5-yl)]AAFN[S8]F[Bta]Q-NH2 (staple 1-4, 4-11) [I-444] — 27-fold lower, 80 nM
- Ac-[αAllylPro]DA[B5(4)]DEAA[Ala(2-furyl)]N[S8]F[Bta]Q-NH2 (staple 1-4, 4-11) [I-460] — 11-fold lower, 196 nM
- Ac-[αAllylPro]DA[B5(4)]DEAA[Phe(4-NH2)]N[S8]F[Bta]Q-NH2 (staple 1-4, 4-11) [I-461] — 17-fold lower, 125 nM
- Ac-[αAllylPro]DA[B5(4)]DEAA[3Thi]N[S8]F[Bta]Q-NH2 (staple 1-4, 4-11) [I-448] — 24-fold lower, 92 nM
- Ac-[αAllylPro]DA[B5(4)]DEAA[Phe(2-Me)]N[S8]F[Bta]Q-NH2 (staple 1-4, 4-11) [I-457] — 1.5-fold lower, 1440 nM
- Ac-[αAllylPro]DA[B5(4)]DEAA[2Thi]N[S8]F[Bta]Q-NH2 (staple 1-4, 4-11) [I-447] — 29-fold lower, 74 nM
- Ac-[αAllylPro]DA[B5(4)]DEAAFN[S8][hPhe][Bta]Q-NH2 (staple 1-4, 4-11; also: staple isomer composition, later-eluting HPLC peak) [I-443] — within 1.5-fold, 2130 nM
- Ac-[αAllylPro]DA[B5(4)][Ala(1H-tetrazol-5-yl)]DAAFN[S8]F[Bta]Q-NH2 (staple 1-4, 4-11) [I-445] — 2.3-fold higher, 4960 nM
- Ac-[αAllylPro]DA[B5(4)]DEAA[2Thi]N[S8]F[Bta]Q-NH2 (staple 1-4, 4-11; also: staple isomer composition, earlier-eluting HPLC peak) [I-446] — 17-fold lower, 130 nM
- Ac-[αAllylPro]DA[B5(4)]DEAA[Phe(3-Me)]N[S8]F[Bta]Q-NH2 (staple 1-4, 4-11) [I-458] — 21-fold lower, 102 nM
- Ac-[αAllylPro]DA[B5(4)]DEAA[3Thi]N[S8]F[Bta]Q-NH2 (staple 1-4, 4-11) [I-449] — 41-fold lower, 53 nM

target: full-length beta-Catenin (Uniprot ID P35222) (Homo sapiens (Human)) (UniProt P35222); test: fluorescence polarization competition; 10 nM full-length beta-catenin + 10 nM 5FAM-TCF4(10-53) probe

Point of comparison: Ac-[αAllylPro]DA[B5(4)]DEAA[Ala(4-thiazolyl)]N[S8]F[Bta]Q-NH2 (staple 1-4, 4-11) [I-524], EC50 2550 nM. Against it:
- Ac-[αAllylPro]D[Abu(4,4,4-F3)][B5(4)]DEAAFQ[S8]F[Bta]H-NH2 (staple 1-4, 4-11) [I-504] — 39-fold lower, 65 nM

target: full-length beta-Catenin (Uniprot ID P35222) (Homo sapiens (Human)) (UniProt P35222); test: fluorescence polarization competition: full-length beta-catenin + 5FAM-TCF4(10-53) probe, peptide titrated

Point of comparison: Ac-[αAllylPro]DA[B5(4)]DEAA[Phe(3-Me)]N[S8]F[Bta]Q-NH2 (staple 1-4, 4-11) [I-458], EC50 102 nM. Against it:
- Ac-[αAllylPro]DA[B5(4)]DEAA[Phe(2-Me)]N[S8]F[Bta]Q-NH2 (staple 1-4, 4-11) [I-456] — 21-fold higher, 2170 nM
- Ac-[αAllylPro]DA[B5(4)]DEAA[Phe(4-Me)]N[S8]F[Bta]Q-NH2 (staple 1-4, 4-11) [I-459] — 1.8-fold higher, 183 nM
- Ac-[αAllylPro]DA[B5(4)]D[Ala(1H-tetrazol-5-yl)]AAFN[S8]F[Bta]Q-NH2 (staple 1-4, 4-11) [I-444] — within 1.5-fold, 80 nM
- Ac-[αAllylPro]DA[B5(4)]DEAA[Ala(2-furyl)]N[S8]F[Bta]Q-NH2 (staple 1-4, 4-11) [I-460] — 1.9-fold higher, 196 nM
- Ac-[αAllylPro]DA[B5(4)]DEAA[Phe(4-NH2)]N[S8]F[Bta]Q-NH2 (staple 1-4, 4-11) [I-461] — within 1.5-fold, 125 nM
- Ac-[αAllylPro]DA[B5(4)]DEAA[3Thi]N[S8]F[Bta]Q-NH2 (staple 1-4, 4-11) [I-448] — within 1.5-fold, 92 nM
- Ac-[αAllylPro]DA[B5(4)]DEAA[Phe(2-Me)]N[S8]F[Bta]Q-NH2 (staple 1-4, 4-11) [I-457] — 14-fold higher, 1440 nM
- Ac-[αAllylPro]DA[B5(4)]DEAA[2Thi]N[S8]F[Bta]Q-NH2 (staple 1-4, 4-11) [I-447] — within 1.5-fold, 74 nM
- Ac-[αAllylPro]DA[B5(4)]DEAAFN[S8][hPhe][Bta]Q-NH2 (staple 1-4, 4-11; also: staple isomer composition, later-eluting HPLC peak) [I-443] — 21-fold higher, 2130 nM
- Ac-[αAllylPro]DA[B5(4)][Ala(1H-tetrazol-5-yl)]DAAFN[S8]F[Bta]Q-NH2 (staple 1-4, 4-11) [I-445] — 49-fold higher, 4960 nM
- Ac-[αAllylPro]DA[B5(4)]DEAA[2Thi]N[S8]F[Bta]Q-NH2 (staple 1-4, 4-11; also: staple isomer composition, earlier-eluting HPLC peak) [I-446] — within 1.5-fold, 130 nM
- Ac-[αAllylPro]DA[B5(4)]DEAA[3Thi]N[S8]F[Bta]Q-NH2 (staple 1-4, 4-11) [I-449] — 1.9-fold lower, 53 nM

— US20240116985A1, “STAPLED PEPTIDES AND METHODS THEREOF” (priority 2020, published 2024)
